Reference: patent publication US20020137891A1, “Protein scaffold and its use to multimerise monomeric polypeptides” (priority 1999, published 2002)
Like-named read-outs stand apart in the source and are kept apart here.

B1: Gp31 (1-111): wild-type bacteriophage T4 Gp31 (gene product), cpn10 family co-chaperonin (protein, UniProt P17313 1-111, looked up)
Capsid assembly protein Gp31: MSEVQQLPIRAVGEYVILVSEPAQAGDEEVTESGLIIGKRVQGEVPELCVVHSVGPDVPEGFCEVGDLTSLPVGQIRNVPHPFVALGLKQPKEIKQKFVTCHYKAIPCLYK
B2: sht-GroEL (193-335): shortest minichaperone, short histidine tail GroEL residues 193-335 (protein, UniProt P0A6F5 193-335, looked up, fragment)
chain: MQFDRGYLSPYFINKPETGAVELESPFILLADKKISNIREMLPVLEAVAKAGKPLLIIAEDVEGEALATLVVNTMRGIVKVAAVKAPGFGDRRKAMLQDIATLTGGTVISEEIGMELEKATLEDLGQAKRVVINKDTTTIIDG
modifications: short histidine tail
B3: GroES (1-97): E. coli co-chaperone, seven membered ring of 10 kD subunits (protein, UniProt P0A6F9 1-97, looked up)
Co-chaperonin GroES: MNIRPLHDRVIVKRKEVETKSAGGIVLTGSAAAKSTRGEVLAVGNGRILENGEVKPLDVKVGDIVIFNDGYGVKSEKIDNEEVLIMSESDILAIVEA
B4: sht-GroEL (191-345): short histidine tail minichaperone, GroEL residues 191-345 (protein, UniProt P0A6F5 191-345, looked up, fragment)
chain: EGMQFDRGYLSPYFINKPETGAVELESPFILLADKKISNIREMLPVLEAVAKAGKPLLIIAEDVEGEALATLVVNTMRGIVKVAAVKAPGFGDRRKAMLQDIATLTGGTVISEEIGMELEKATLEDLGQAKRVVINKDTTTIIDGVGEEAAIQGR
modifications: short histidine tail
B5: GroEL(191-345): GroEL(191-345) minichaperone monomer (protein, UniProt P0A6F5 191-345, looked up, fragment)
chain: B4 chain
modifications: apical domain
notes: GroEL(191-345) minichaperone monomer
B6: sht-GroEL (191-376): histidine-tagged (short histidine tail; sht) minichaperone GroEL(191-376) (protein, UniProt P0A6F5 191-376, looked up, fragment)
chain: EGMQFDRGYLSPYFINKPETGAVELESPFILLADKKISNIREMLPVLEAVAKAGKPLLIIAEDVEGEALATLVVNTMRGIVKVAAVKAPGFGDRRKAMLQDIATLTGGTVISEEIGMELEKATLEDLGQAKRVVINKDTTTIIDGVGEEAAIQGRVAQIRQQIEEATSDYDREKLQERVAKLAGGV
modifications: short histidine tail

Experiments:
[1] = tested on: COS-7, PC12, and SH-SY5Y cells; conditions: cited from earlier work
bacteriophage λ (b2cI) = experiment: Growth (plaque formation) of bacteriophage λ at 30° C. in transformed wild-type and groEL mutant strains; format: cell-based, E. coli; parameters: key to Growth of bacteriophage λ, SV1 (groEL^+) / Growth of bacteriophage λ, SV2 groEL44: +++: normal plaque-forming ability relative to wild-type groEL^+ strain, in terms of both number and size; ++: 5-fold fewer plaques relative to wild-type groEL^+ strain, or both; 10-fold fewer plaques, or plaque size reduced relative to wild-type groEL^+ strain, or both; +/−: 10^2-fold fewer plaques and plaque size reduced relative to wild-type groEL^+ strain; no visible plaques (<10^−4); conditions: for Growth of bacteriophage λ, SV1 (groEL^+) / Growth of bacteriophage λ, SV2 groEL44 / Growth of bacteriophage λ, SV3 GroEL59 / Growth of bacteriophage λ, SV6 groEL673: pJC plasmid
From the text: (§1) Bacterial and bacteriophage strains. The E. coli strains used in this study were: C41(DE3), a mutant of BL21(DE3) capable of expressing toxic genes (Miroux, B. & Walker, J. E. (1996) J. Mol. Biol. 260, 289-298); SV2 (B178groEL44), SV3 (B178groEL59) and SV6 (B178groEL673): isogenic strains carrying temperature-sensitive alleles of groEL; SV1(=B178) (Georgopoulos, C., Hendrix, R. W., Casjens, S. R. & Kaiser, A. D. (1973) J. Mol. Biol. 76, 45-60), AI90 (ΔgroEL::kan^R) [pBAD-EL] (Ivic, A., Olden, D., Wallington, E. J. & Lund, P. A. (1997) Gene 194, 1-8), and TG1 (Gibson, T. J. (1984) Ph.D. thesis, University of Cambridge, U.K). Bacteriophage λb2cI (Zeilstra-Ryalls, J., Fayet, O., Baird, L. & Georgopoulos, C. (1993) J. Bacteriol. 175, 1134-1143) was used according to standard methods (Arber, W., Enquist, L., Hohn, B., Murray, N. E. & Murray, K. (1983) in Lambda II., ed. R. W. Hendrix, J. W. r., F. W. Stahl and R. A. Weisberg (Cold Spring Harbor Laboratory, Cold Spring Harbor, N.Y.), pp. 433-466); plaque formation was assayed at 30° C. T4D0, a derivative of bacteriophage T4 (Zeilstra-Ryalls, J., Fayet, O., Baird, L. & Georgopoulos, C. (1993) J. Bacteriol. 175, 1134-1143), was used according to standard methods (Karam, J. D. (1994) Molecular biology of bacteriophage T4. (American Society for Microbiology, Washington, D.C.)); plaque formation was assayed at 37° C.
(§2) Bacteriophage λ requires the chaperonins GroES and GroEL for protein folding during morphogenesis; bacteriophage T4 requires GroEL and Gp31, the latter being encoded by the bacteriophage genome (Zeilstra-Ryalls, J., Fayet, O. & Georgopoulos, C. (1991) Annu. Rev. Microbiol. 45, 301-325). Nine groE alleles which fail to support λ growth have been sequenced (Zeilstra-Ryalls, J., Fayet, O., Baird, L. & Georgopoulos, C. (1993) J. Bacteriol. 175, 1134-1143). We examined the ability of MC7, over-expressed from the constitutive tet promoter on a high-copy number vector (see FIG. 2), to complement three mutant groEL alleles for plaque formation by λ (b2cI) at 30° C. (Table 3) and T4 at 37° C. (Table 4).

bacteriophage T4 (T4D0) [2] = experiment: Growth (plaque formation) of bacteriophage T4 at 37° C. in transformed wild-type and groEL mutant strains; format: cell-based, E. coli; parameters: key: +++: normal plaque-forming ability relative to wild-type groEL^+ strain, in terms of both number and size; ++: 5-fold fewer plaques relative to wild-type groEL^+ strain, or both; 10-fold fewer plaques, or plaque size reduced relative to wild-type groEL^+ strain, or both; +/−: 10^2-fold fewer plaques and plaque size reduced relative to wild-type groEL^+ strain; no visible plaques (<10^−4); conditions: pJC plasmid
From the text: as §1, §2

E. coli SV6 groEL673 = experiment: In vivo complementation of thermosensitive groEL mutant at 43° C., strain SV6; format: cell-based; conditions: for Relative colony forming ability, SV6 groEL673: pJC plasmid, relative to growth at 30° C.
Procedure: (§3) In vivo complementation experiments. Complementation experiments were performed by transforming electro-competent SV2 or SV6 cells with the pJC series of expression vectors and plating an aliquot of the transformation reactions directly at 43° C. The percentage of viable cells relative to the growth at 30° C. was determined. A representative number of clones which grew at 43° C. were incubated in absence of any selective markers at permissive temperature. After prolonged growth the loss of the pJC plasmids and the ts phenotype were verified. Each experiment was performed in duplicate. Plasmids carrying no groE genes or encoding the GroE proteins were used as negative or positive controls, respectively.

bacteriophage T4 (T4D0) [3] = experiment: Growth (plaque formation) of bacteriophage T4 at 37° C. in transformed wild-type and groEL mutant strains; format: cell-based, E. coli; conditions: text prints 30° C. (Table 3)
E. coli SV2 groEL44 = experiment: In vivo complementation of thermosensitive groEL mutant at 43° C., strain SV2; format: cell-based; conditions: for Relative colony forming ability, SV2 groEL44: pJC plasmid, relative to growth at 30° C.
Procedure: as §3

[4] = tested on: mutant Huntingdon exon 1-expressing PC12 and SH-SY5Y cells; conditions: overexpression in PC12 and SH-SY5Y cells; D. Rubinsztein et al.; cited from earlier work
[5] = tested on: AI90 (ΔgroEL::kan^R) [pBADEL] E. coli strain; experiment: Plating ability of transformed AI90 (ΔgroEL::kan^R) [pBAD-EL] at 37° C. on depletion of GroEL; format: cell-based; parameters: key: +++: growth identical to that in presence of 0.2% L(+)arabinose (100%), in terms of both number and size; ++: about 50% of the colonies relative to that in presence of 0.2% L(+)arabinose; +: about 30% of the colonies; +/−: ≦5% of the colonies and size reduced relative to that in presence of 0.2% L(+)arabinose; −: no visible colonies
Procedure: AI90 (ΔgroEL::kan^R) [pBAD-EL] cells were transformed with the pJC vector series. Transformants were selected at 37° C. on LB supplemented with 50 μg.ml^−1 of kanamycin, 120 μg.mL^−1 of ampicillin, 25 μg.mL^1 of chloramphenicol and 0.2% L(+)arabinose. Depletion of GroEL protein was analysed at 37° C. by plating the same quantity of AI90 [pBAD-EL+pJC vectors] cells on LB plates containing 1% D(+)glucose or various amount of arabinose.
Each experiment was performed in triplicate. Plasmids carrying no groE genes or encoding the GroE proteins were used as negative or positive controls, respectively.

Molecule	Growth of bacteriophage λ, SV1 (groEL^+) (bacteriophage λ (b2cI))	Growth of bacteriophage λ, SV2 groEL44 (bacteriophage λ (b2cI))	Growth of bacteriophage λ, SV3 GroEL59 (bacteriophage λ (b2cI))	Growth of bacteriophage λ, SV6 groEL673 (bacteriophage λ (b2cI))	Growth of bacteriophage T4, SV1 (groEL^+) (bacteriophage T4 (T4D0) [2])	Growth of bacteriophage T4, SV2 groEL44 (bacteriophage T4 (T4D0) [2])	Growth of bacteriophage T4, SV3 groEL59 (bacteriophage T4 (T4D0) [2])	Growth of bacteriophage T4, SV6 groEL673 (bacteriophage T4 (T4D0) [2])	Relative colony forming ability, SV6 groEL673 (E. coli SV6 groEL673)	Relative colony forming ability, SV2 groEL44 (E. coli SV2 groEL44)	other results
CC(=O)N[C@@H](CSC(=O)[C@]1([C@@H](O)C(C)C)NC(=O)[C@H](C)[C@@H]1O)C(=O)O [lactacystin]											proportion of cells with inclusions of mutant Huntington exon 1 ([1]; treatment of transfected cells): increased
HDJ-2/HSDJ: a human HSP40 homologue											inclusion formation ([1]; overexpression in COS-7 cells): increased inclusion formation; inclusion formation ([1]; overexpression in PC12 and SH-SY5Y cells): did not modify inclusion formation
B1	+++	− (no visible plaques (<10^−4))	− (no visible plaques (<10^−4))	− (no visible plaques (<10^−4))	+++	+++	+++	+++	<10^−4	0.5 × 10^−3	Effect of over-expression on bacteriophage T4 growth in groEL strains (in words) (bacteriophage T4 (T4D0) [3]): allows T4 growth in all strains
B2									0.03-0.05	0.05-0.09	Complementation of the groEL673 defect in SV6 (in words) (E. coli SV6 groEL673): less well; Complementation of the groEL44 defect in SV2 (in words) (E. coli SV2 groEL44): complements
B3	+++	+++	− (no visible plaques (<10^−4))	− (no visible plaques (<10^−4))	+++	+++	+++	− (no visible plaques (<10^−4))	<10^−4	5 × 10^−3	Complementation of groEL mutant strains for bacteriophage λ growth (in words) (bacteriophage λ (b2cI)): allele-specific complementation; Effect of over-expression on plaque formation by bacteriophage λ in SV1 (groE^+) (in words) (bacteriophage λ (b2cI)): had no effect; Effect of over-expression on bacteriophage T4 growth in groEL strains (in words) (bacteriophage T4 (T4D0) [3]): allele-specific complementation
B4									0.07-0.09	0.01-0.02	Complementation of the groEL673 defect in SV6 (in words) (E. coli SV6 groEL673): complemented
B5											cell death [4]: reduced cell death; proportion of cells with inclusions [4]: reduced slightly but significantly
B6	+++	− (no visible plaques (<10^−4))	− (no visible plaques (<10^−4))	− (no visible plaques (<10^−4))	+++	− (no visible plaques (<10^−4))	+++	− (no visible plaques (<10^−4))	<10^−4	<10^−4	Plating ability ([5]; 0.00 % L(+)arabinose): −; Plating ability ([5]; 0.01 % L(+)arabinose): +/− (≦5% of the colonies and size reduced relative to that in presence of 0.2% L(+)arabinose); Plating ability ([5]; 0.10 % L(+)arabinose): + (about 30% of the colonies); Plating ability ([5]; 0.15 % L(+)arabinose): ++ (about 50% of the colonies relative to that in presence of 0.2% L(+)arabinose)
